From patent US20250051433A1 (INMAGENE PTE, published 2025)
Positions count from the first letter of the chain named. Where two headings read alike, the source gives them in different places. Blank lines part the entries; values can stand above or below the binder they belong to.

Key:
[1] = target: T1, human long form TSLP expressed on cell membrane; assay: FACS on cells expressing the membrane human long-form TSLP fusion protein, MFI; unit taken from the concentration axis
T1 construct: also called membrane long-form huTSLP fusion protein; membrane long-form TSLP fusion protein
T1 sequence (chain, as listed by the source): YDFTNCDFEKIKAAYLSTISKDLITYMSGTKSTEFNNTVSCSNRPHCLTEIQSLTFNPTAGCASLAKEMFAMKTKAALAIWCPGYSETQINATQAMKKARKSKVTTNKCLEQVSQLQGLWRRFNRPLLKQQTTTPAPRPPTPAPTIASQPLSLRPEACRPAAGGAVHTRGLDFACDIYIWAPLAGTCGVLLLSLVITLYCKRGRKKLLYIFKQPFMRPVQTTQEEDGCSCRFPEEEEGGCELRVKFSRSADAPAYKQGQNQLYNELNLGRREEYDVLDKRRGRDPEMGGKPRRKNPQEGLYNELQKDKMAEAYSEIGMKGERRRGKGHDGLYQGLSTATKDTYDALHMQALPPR

[2] = target: T1, human long form TSLP expressed on cell …; assay: as above; remark: listed apart in the source
[3] = target: T1, human long form TSLP expressed on cell …; assay: as above; remark: listed apart in the source
[4] = target: T1, human long form TSLP expressed on cell …; assay: FACS on cells expressing the membrane human long-form TSLP fusion protein, MFI; rising binding curve, but the table column is headed IC50; unit taken from the concentration axis
[5] = target: T1, human long form TSLP expressed on cell …; assay: FACS on cells expressing the membrane human long-form TSLP fusion protein, MFI; unit taken from the concentration axis; remark: listed apart in the source
[6] = target: T2, mouse long-form TSLP protein (ACRO, tsp-m52h8) (mouse, UniProt Q9JIE6 20-140); assay: ELISA on coated mouse long-form TSLP
T2 construct: Bought; also called mouse TSLP
T2 sequence (looked up): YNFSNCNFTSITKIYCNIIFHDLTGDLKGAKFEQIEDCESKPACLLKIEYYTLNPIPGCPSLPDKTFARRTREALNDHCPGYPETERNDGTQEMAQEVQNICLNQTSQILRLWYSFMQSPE

[7] = target: T3, membrane short-form huTSLP fusion protein (human); assay: FACS on cells expressing membrane short-form huTSLP, MFI; ambiguous fit of a flat curve (Bottom 778.2, Top 872.2), see non_binding; unit taken from the concentration axis
T3 construct: also called human short form TSLP expressed on cell membrane
T3 sequence (chain, as listed by the source limits assumed): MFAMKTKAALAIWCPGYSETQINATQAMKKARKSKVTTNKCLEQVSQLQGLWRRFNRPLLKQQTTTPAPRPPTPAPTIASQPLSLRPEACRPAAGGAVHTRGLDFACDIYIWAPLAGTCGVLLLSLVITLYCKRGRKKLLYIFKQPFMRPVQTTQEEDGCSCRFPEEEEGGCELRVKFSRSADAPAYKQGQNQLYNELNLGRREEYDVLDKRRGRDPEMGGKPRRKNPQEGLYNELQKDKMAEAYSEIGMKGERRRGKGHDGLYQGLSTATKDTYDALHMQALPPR

[8] = target: T4, cynomolgus long-form TSLP protein (ACRO, tsp-c52h8) (cynomolgus monkey, UniProt A0A7N9CAT7 29-159); assay: ELISA on coated cynomolgus long-form TSLP, OD450; curve still rising at the highest concentration (about 1.2 at about 20 µg/mL, fitted Top 1.343); unit taken from the concentration axis
T4 construct: also called monkey long-form TSLP; Cyno TSLP
T4 sequence: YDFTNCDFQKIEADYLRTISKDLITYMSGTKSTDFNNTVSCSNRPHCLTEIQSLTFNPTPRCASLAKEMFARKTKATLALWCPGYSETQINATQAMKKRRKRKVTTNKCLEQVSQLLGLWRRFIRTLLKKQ

[9] = target: T5, human long-form TSLP protein (Acro, tsp-h5255 or tsp-h52ha) (human, UniProt Q969D9 29-159); assay: ELISA on coated human long-form TSLP, OD450; unit taken from the concentration axis
T5 construct: If it was tsp-h52ha, this is the same molecule as m12 (His-tagged); also called human TSLP protein
T5 sequence (Q969D9 29-159 R127A/R130A limits assumed): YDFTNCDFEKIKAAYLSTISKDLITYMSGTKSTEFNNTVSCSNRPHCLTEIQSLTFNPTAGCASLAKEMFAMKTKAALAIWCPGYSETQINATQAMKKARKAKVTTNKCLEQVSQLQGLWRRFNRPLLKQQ

[10] = target: T5, human long-form TSLP protein (Acro, …); assay: as above; remark: listed apart in the source
[11] = target: T4, cynomolgus long-form TSLP protein …; assay: ELISA on coated cynomolgus long-form TSLP, OD450; ambiguous fit of a flat curve (Bottom 0.06800, Top ~ 0.8608), see non_binding; unit taken from the concentration axis
[12] = target: T5, human long-form TSLP protein (Acro, …); assay: BLI (Gator, HFC probe), antibody loaded at 10 ug/ml, TSLP at 50 to 1.56 nM
[13] = target: T3, membrane short-form huTSLP fusion …; assay: FACS on cells expressing membrane short-form huTSLP, MFI; ambiguous fit of a flat curve (Bottom 712.4, Top 749.3), see non_binding; unit taken from the concentration axis
[14] = target: T4, cynomolgus long-form TSLP protein …; assay: ELISA on coated cynomolgus long-form TSLP, OD450; ambiguous fit of a flat curve (Bottom 0.06295, Top ~ 145.1), see non_binding; unit taken from the concentration axis
[15] = target: T3, membrane short-form huTSLP fusion …; assay: FACS on cells expressing membrane short-form huTSLP, MFI; ambiguous fit of a flat curve (Bottom 895.5, Top 876.2), see non_binding; unit taken from the concentration axis
[16] = target: T5, human long-form TSLP protein (Acro, …); assay: ELISA on coated human long-form TSLP, OD450; unit taken from the concentration axis; remark: listed apart in the source

B1: 39H11Z07 (antibody, human IgG2, kappa)
heavy: QVQLVQSGAEVKKPGSSVKVSCKASGYAFSSYWMNWVRQAPGQGLEWMGQIFPGDGETNYNGKFKGRVTITADKSTSTAYMELSSLRSEDTAVYYCARGGYVNFLYAMDYWGQGTTVTVSSASTKGPSVFPLAPCSRSTSESTAALGCLVKDYFPEPVTVSWNSGALTSGVHTFPAVLQSSGLYSLSSVVTVPSSNFGTQTYTCNVDHKPSNTKVDKTVERKCCVECPPCPAPPVAGPSVFLFPPKPKDTLMISRTPEVTCVVVDVSHEDPEVQFNWYVDGVEVHNAKTKPREEQFNSTFRVVSVLTVVHQDWLNGKEYKCKVSNKGLPAPIEKTISKTKGQPREPQVYTLPPSREEMTKNQVSLTCLVKGFYPSDISVEWESNGQPENNYKTTPPMLDSDGSFFLYSKLTVDKSRWQQGNVFSCSVMHEALHNHYTQKSLSLSPGK
light: EIVMTQSPATLSVSPGERATLSCSVSSSISSSNLHWYQQKPGQSPRPWIYGTSTLASGIPARFSGSGSGTEFTLTISSLQSEDFAVYYCQQWSSYPLTFGGGTKVEIKRTVAAPSVFIFPPSDEQLKSGTASVVCLLNNFYPREAKVQWKVDNALQSGNSQESVTEQDSKDSTYSLSSTLTLSKADYEKHKVYACEVTHQGLSSPVTKSFNRGEC
notes: also called 39H11Z07-IgG2
EC50 [1]: 0.079 µg/mL

B2: 35G12Z03 (antibody, human IgG2, kappa)
heavy: QVQLVQSGAEVKKPGSSVKVSCKSSGYAFSSYWINWVRQAPGQGLEWMGQIFPGDGDTTYNGNFKGRVTITADKSTSTAYMELSSLRSEDTAVYYCARSGFDYGYFYAMDYWGQGTTVTVSSASTKGPSVFPLAPCSRSTSESTAALGCLVKDYFPEPVTVSWNSGALTSGVHTFPAVLQSSGLYSLSSVVTVPSSNFGTQTYTCNVDHKPSNTKVDKTVERKCCVECPPCPAPPVAGPSVFLFPPKPKDTLMISRTPEVTCVVVDVSHEDPEVQFNWYVDGVEVHNAKTKPREEQFNSTFRVVSVLTVVHQDWLNGKEYKCKVSNKGLPAPIEKTISKTKGQPREPQVYTLPPSREEMTKNQVSLTCLVKGFYPSDISVEWESNGQPENNYKTTPPMLDSDGSFFLYSKLTVDKSRWQQGNVFSCSVMHEALHNHYTQKSLSLSPGK
light: B1 light with Y50F, T54N
notes: also called 35G12Z03-IgG2
EC50 [2]: 0.159 µg/mL

B6: 35G12Z02 (antibody, human IgG2, V domains shown)
VH: EVQLVQSGAEVKKPGESLKISCKSSGYAFSSYWINWVRQMPGKGLEWMGQIFPGDGDTTYNGNFKGQVTISADKSISTAYLQWSSLKASDTAMYYCARSGFDYGYFYAMDYWGQGTTVTVSS
VL: EIVMTQSPATLSVSPGERATLSCSVSSSISSSNLHWYQQKPGQSPRPWIFGTSNLASGIPARFSGSGSGTEFTLTISSLQSEDFAVYYCQQWSSYPLTFGGGTKVEIK
EC50 [2]: 0.174 µg/mL

B7: 35G12Z01 (antibody, human IgG2, V domains shown)
VH: QVQLVQSGAEVKKPGASVKVSCKSSGYAFSSYWMNWVRQAPGQGLEWMGQIFPGDGDTTYNGNFKGRVTMTRDTSTSTVYMELSSLRSEDTAVYYCARSGFDYGYFYAMDYWGQGTTVTVSS
VL: B6 VL
EC50 [2]: 0.158 µg/mL

Continued, values first:

EC50 [3]: 0.0466 µg/mL
EC50 [4]: 0.515 µg/mL
EC50 [1]: 0.0712 µg/mL
EC50 [5]: 0.219 µg/mL
binding result [6]: no binding (tested: about 20 µg/mL)
EC50 [7]: ~13.5 µg/mL
EC50 [8]: 1.24 µg/mL
EC50 [2]: 0.156 µg/mL
B3: AMG 157 (antibody, human IgG2, lambda, V domains shown)
VH: QMQLVESGGGVVQPGRSLRLSCAASGFTFRTYGMHWVRQAPGKGLEWVAVIWYDGSNKHYADSVKGRFTITRDNSKNTLNLQMNSLRAEDTAVYYCARAPQWELVHEAFDIWGQGTMVTVSS
VL: SYVLTQPPSVSVAPGQTARITCGGNNLGSKSVHWYQQKPGQAPVLVVYDDSDRPSWIPERFSGSNSGNTATLTISRGEAGDEADYYCQVWDSSSDHVVFGGGTKLTVLG
notes: also called BMK; benchmark

EC50 [3]: 0.129 µg/mL
B4: 39H11Z11 (antibody, human IgG2, V domains shown)
VH: QVQLVQSGAEVKKPGASVKVSCKASGYAFSSYWMNWVRQAPGQGLEWMGQIFPGDGETNYNGKFKGRVTMTRDTSTSTVYMELSSLRSEDTAVYYCARGGYVNFLYAMDYWGQGTTVTVSS
VL: B6 VL with F50Y, N54T

EC50 [9]: 0.153 µg/mL
EC50 [10]: 0.149 µg/mL
EC50 [11]: ~23.8 µg/mL
binding result [6]: no binding (tested: about 20 µg/mL)
Kd [12]: 2.1 nM
EC50 [13]: ~0.134 µg/mL
B5: mAb39H11 (antibody, IgG4)
heavy: QVQLVQSGAEVKKPGSSVKVSCKASGYAFSSYWMNWVRQAPGQGLEWMGQIFPGDGETNYNGKFKGRVTITADKSTSTAYMELSSLRSEDTAVYYCARGGYVNFLYAMDYWGQGTTVTVSSASTKGPSVFPLAPCSRSTSESTAALGCLVKDYFPEPVTVSWNSGALTSGVHTFPAVLQSSGLYSLSSVVTVPSSSLGTKTYTCNVDHKPSNTKVDKRVESKYGPPCPPCPAPEAAGGPSVFLFPPKPKDTLYITREPEVTCVVVDVSQEDPEVQFNWYVDGVEVHNAKTKPREEQFNSTYRVVSVLTVLHQDWLNGKEYKCKVSNKGLPSSIEKTISKAKGQPREPQVYTLPPSQEEMTKNQVSLTCLVKGFYPSDIAVEWESNGQPENNYKTTPPVLDSDGSFFLYSRLTVDKSRWQEGNVFSCSVMHEALHNHYTQKSLSLSLG
light: B6 VL with F50Y, N54T
notes: not shown: human kappa light chain constant region ('its corresponding light chain vector')

EC50 [14]: ~51.9 µg/mL
EC50 [9]: 0.206 µg/mL
EC50 [10]: 0.122 µg/mL
binding result [6]: no binding (tested: about 20 µg/mL)
EC50 [15]: ~0.384 µg/mL
Kd [12]: 1.98 nM
B8: mAb35G12 (antibody)
heavy: QVQLVQSGAEVKKPGSSVKVSCKSSGYAFSSYWINWVRQAPGQGLEWMGQIFPGDGDTTYNGNFKGRVTITADKSTSTAYMELSSLRSEDTAVYYCARSGFDYGYFYAMDYWGQGTTVTVSSASTKGPSVFPLAPCSRSTSESTAALGCLVKDYFPEPVTVSWNSGALTSGVHTFPAVLQSSGLYSLSSVVTVPSSSLGTKTYTCNVDHKPSNTKVDKRVESKYGPPCPPCPAPEAAGGPSVFLFPPKPKDTLYITREPEVTCVVVDVSQEDPEVQFNWYVDGVEVHNAKTKPREEQFNSTYRVVSVLTVLHQDWLNGKEYKCKVSNKGLPSSIEKTISKAKGQPREPQVYTLPPSQEEMTKNQVSLTCLVKGFYPSDIAVEWESNGQPENNYKTTPPVLDSDGSFFLYSRLTVDKSRWQEGNVFSCSVMHEALHNHYTQKSLSLSLG
light: B6 VL
notes: as for B5

EC50 [3]: 0.111 µg/mL
EC50 [16]: 0.0325 µg/mL
EC50 [1]: 0.0953 µg/mL
EC50 [5]: 0.228 µg/mL
B9: Chi39H11 (antibody, human IgG2, V domains shown)
VH: QVQLQQSGAELVRPGSSVKISCKASGYAFSSYWMNWVKQRPGQGLEWIGQIFPGDGETNYNGKFKGKATLTADKSSSTAYMQLSSLTSEDSAVYFCARGGYVNFLYAMDYWGQGTSVTVSS
VL: EIVLTQSPALMAASPGEKVTITCSVSSSISSSNLHWYQQKSETSPKPWIYGTSTLASGVPVRFSGSGSGTSYSLTISSMEAEDAATYYCQQWSSYPLTFGAGTKLELK
notes: also called 39H11 chimeric antibody

EC50 [4]: 0.403 µg/mL
EC50 [2]: 0.173 µg/mL
B10: Chi35G12 (antibody, human IgG2, V domains shown)
VH: QVQLQQSGAELVRPGSSVKISCKSSGYAFSSYWMNWVKQRPGQGLEWIGQIFPGDGDTTYNGNFKGKTTLTADKSSNTAYMQLSSLTSEDSAVYFCARSGFDYGYFYAMDYWGQGTSVTVSS
VL: B9 VL with A9T, Y50F, T54N, S78N
notes: also called 35G12 chimeric antibody
